Measurements published in patent publication US20250206818A1 (AGENUS, published 2025).

B1: P13B02-12 (antibody, IgG1, V domains shown)
VH: QVQLVQSGAEVKKPGASVKVSCKASGFNIKDTYIHWVRQAPGQGLEWMGEIDPANDNTKYDPKFQGRVTITADTSSNTVYMELSSLRSEDTAVYYCATYYYRYDVGGFDYWGQGTLVTVSS
VL: EIVLTQSPGTLSLSPGERATLSCSVSSSISSSNLHWYQQKPGQAPRLLIYGTSNLASGIPDRFSGSGSGTSYTLTISRLEPEDFAVYYCQQWSSYPFTFGQGTKVEIK
notes: Humanized; generated as full length IgG1
B2: P13B02-01 (antibody, IgG1, V domains shown)
VH: QVQLVQSGAEVKKPGASVKVSCKASGFNIKDTYIHWVRQAPGQGLEWMGEIDPANDNTKYDPKFQGRVTMTRDTSTSTVYMELSSLRSEDTAVYYCARYYYRYDVGGFDYWGQGTLVTVSS
VL: EIVLTQSPGTLSLSPGERATLSCSVSSSISSSNLHWYQQKPGQAPRLLIYGTSNLASGIPDRFSGSGSGTDFTLTISRLEPEDFAVYYCQQWSSYPFTFGQGTKVEIK
notes: as for B1
B3: P13B02-02 (antibody, IgG1, V domains shown)
VH: QVQLVQSGAEVKKPGASVKVSCKASGFNIKDTYIHWVRQAPGQGLEWMGEIDPANDNTKYDPKFQGRVTMTRDTSTSTVYMELSSLRSEDTAVYYCARYYYRYDVGGFDYWGQGTLVTVSS
VL: EIVLTQSPGTLSLSPGERATLSCSVSSSISSSNLHWYQQKPGQAPRLLIYGTSNLASGIPDRFSGSGSGTSYTLTISRLEPEDFAVYYCQQWSSYPFTFGQGTKVEIK
notes: as for B1
B4: P13B02-03 (antibody, IgG1, V domains shown)
VH: QVQLVQSGAEVKKPGASVKVSCKASGFNIKDTYIHWVRQAPGQGLEWMGEIDPANDNTKYDPKFQGRVTMTRDTSTSTVYMELSSLRSEDTAVYYCARYYYRYDVGGFDYWGQGTLVTVSS
VL: EILLTQSPGTLSLSPGERATLSCSVSSSISSSNLHWFQQKPGQAPRLLIYGTSNLASGIPDRFSGSGSGTSYTLTISRLEPEDFAVYYCQQWSSYPFTFGQGTKVEIK
notes: as for B1
B5: P13B02-04 (antibody, IgG1, V domains shown)
VH: QVQLVQSGAEVKKPGASVKVSCKASGFNIKDTYIHWVRQAPGQGLEWMGEIDPANDNTKYDPKFQGRVTMTRDTSTSTVYMELSSLRSEDTAVYYCARYYYRYDVGGFDYWGQGTLVTVSS
VL: EILLTQSPGTLSLSPGERATLSCSVSSSISSSNLHWFQQKPGQAPRLWIYGTSNLASGVPDRFSGSGSGTSYTLTISRLEPEDFAVYYCQQWSSYPFTFGQGTKVEIK
notes: as for B1
B6: P13B02-05 (antibody, IgG1, V domains shown)
VH: QVQLVQSGAEVKKPGASVKVSCKASGFNIKDTYIHWVRQAPGQGLEWMGEIDPANDNTKYDPKFQGRVTMTRDTSTSTVYMELSSLRSEDTAVYYCARYYYRYDVGGFDYWGQGTLVTVSS
VL: EILLTQSPGTLSLSPGERATLTCSVSSSISSSNLHWFQQKPGQSPRLWIYGTSNLASGVPDRFSGSGSGTSYTLTISRLEPEDFAVYYCQQWSSYPFTFGQGTKVEIK
notes: as for B1
B7: P13B02-08 (antibody, IgG1, V domains shown)
VH: QVQLVQSGAEVKKPGASVKVSCKASGFNIKDTYIHWVRQAPGQGLEWMGEIDPANDNTKYDPKFQGRVTITADTSTSTVYMELSSLRSEDTAVYYCATYYYRYDVGGFDYWGQGTLVTVSS
VL: EILLTQSPGTLSLSPGERATLSCSVSSSISSSNLHWFQQKPGQAPRLLIYGTSNLASGIPDRFSGSGSGTSYTLTISRLEPEDFAVYYCQQWSSYPFTFGQGTKVEIK
notes: as for B1
B8: P13B02-09 (antibody, IgG1, V domains shown)
VH: QVQLVQSGAEVKKPGASVKVSCKASGFNIKDTYIHWVRQAPGQGLEWMGEIDPANDNTKYDPKFQGRVTITADTSTSTVYMELSSLRSEDTAVYYCATYYYRYDVGGFDYWGQGTLVTVSS
VL: EILLTQSPGTLSLSPGERATLSCSVSSSISSSNLHWFQQKPGQAPRLWIYGTSNLASGVPDRFSGSGSGTSYTLTISRLEPEDFAVYYCQQWSSYPFTFGQGTKVEIK
notes: as for B1
B9: P13B02-10 (antibody, IgG1, V domains shown)
VH: QVQLVQSGAEVKKPGASVKVSCKASGFNIKDTYIHWVRQAPGQGLEWMGEIDPANDNTKYDPKFQGRVTITADTSTSTVYMELSSLRSEDTAVYYCATYYYRYDVGGFDYWGQGTLVTVSS
VL: EILLTQSPGTLSLSPGERATLTCSVSSSISSSNLHWFQQKPGQSPRLWIYGTSNLASGVPDRFSGSGSGTSYTLTISRLEPEDFAVYYCQQWSSYPFTFGQGTKVEIK
notes: as for B1
B10: P13B02-11 (antibody, IgG1, V domains shown)
VH: QVQLVQSGAEVKKPGASVKVSCKASGFNIKDTYIHWVRQAPGQGLEWMGEIDPANDNTKYDPKFQGRVTITADTSSNTVYMELSSLRSEDTAVYYCATYYYRYDVGGFDYWGQGTLVTVSS
VL: EIVLTQSPGTLSLSPGERATLSCSVSSSISSSNLHWYQQKPGQAPRLLIYGTSNLASGIPDRFSGSGSGTDFTLTISRLEPEDFAVYYCQQWSSYPFTFGQGTKVEIK
notes: as for B1
B11: P13B02-13 (antibody, IgG1, V domains shown)
VH: QVQLVQSGAEVKKPGASVKVSCKASGFNIKDTYIHWVRQAPGQGLEWMGEIDPANDNTKYDPKFQGRVTITADTSSNTVYMELSSLRSEDTAVYYCATYYYRYDVGGFDYWGQGTLVTVSS
VL: EILLTQSPGTLSLSPGERATLSCSVSSSISSSNLHWFQQKPGQAPRLLIYGTSNLASGIPDRFSGSGSGTSYTLTISRLEPEDFAVYYCQQWSSYPFTFGQGTKVEIK
notes: as for B1
B12: P13B02-14 (antibody, IgG1, V domains shown)
VH: QVQLVQSGAEVKKPGASVKVSCKASGFNIKDTYIHWVRQAPGQGLEWMGEIDPANDNTKYDPKFQGRVTITADTSSNTVYMELSSLRSEDTAVYYCATYYYRYDVGGFDYWGQGTLVTVSS
VL: EILLTQSPGTLSLSPGERATLSCSVSSSISSSNLHWFQQKPGQAPRLWIYGTSNLASGVPDRFSGSGSGTSYTLTISRLEPEDFAVYYCQQWSSYPFTFGQGTKVEIK
notes: as for B1
B13: P13B02-15 (antibody, IgG1, V domains shown)
VH: QVQLVQSGAEVKKPGASVKVSCKASGFNIKDTYIHWVRQAPGQGLEWMGEIDPANDNTKYDPKFQGRVTITADTSSNTVYMELSSLRSEDTAVYYCATYYYRYDVGGFDYWGQGTLVTVSS
VL: EILLTQSPGTLSLSPGERATLTCSVSSSISSSNLHWFQQKPGQSPRLWIYGTSNLASGVPDRFSGSGSGTSYTLTISRLEPEDFAVYYCQQWSSYPFTFGQGTKVEIK
notes: as for B1
B14: P13B02-17 (antibody, IgG1, V domains shown)
VH: QVQMKQSGAEVKKPGASVKVSCTASGFNIKDTYIHWVRQAPGQGLEWMGEIDPANDNTKYDPKFQGRVTITADTSSNTVYMELSSLRSEDTAVYYCATYYYRYDVGGFDYWGQGTLVTVSS
VL: EIVLTQSPGTLSLSPGERATLSCSVSSSISSSNLHWYQQKPGQAPRLLIYGTSNLASGIPDRFSGSGSGTSYTLTISRLEPEDFAVYYCQQWSSYPFTFGQGTKVEIK
notes: as for B1
B15: P13B02-18 (antibody, IgG1, V domains shown)
VH: QVQMKQSGAEVKKPGASVKVSCTASGFNIKDTYIHWVRQAPGQGLEWMGEIDPANDNTKYDPKFQGRVTITADTSSNTVYMELSSLRSEDTAVYYCATYYYRYDVGGFDYWGQGTLVTVSS
VL: EILLTQSPGTLSLSPGERATLSCSVSSSISSSNLHWFQQKPGQAPRLLIYGTSNLASGIPDRFSGSGSGTSYTLTISRLEPEDFAVYYCQQWSSYPFTFGQGTKVEIK
notes: as for B1
B16: P13B02-19 (antibody, IgG1, V domains shown)
VH: QVQMKQSGAEVKKPGASVKVSCTASGFNIKDTYIHWVRQAPGQGLEWMGEIDPANDNTKYDPKFQGRVTITADTSSNTVYMELSSLRSEDTAVYYCATYYYRYDVGGFDYWGQGTLVTVSS
VL: EILLTQSPGTLSLSPGERATLSCSVSSSISSSNLHWFQQKPGQAPRLWIYGTSNLASGVPDRFSGSGSGTSYTLTISRLEPEDFAVYYCQQWSSYPFTFGQGTKVEIK
notes: as for B1
B17: P13B02-20 (antibody, IgG1, V domains shown)
VH: QVQMKQSGAEVKKPGASVKVSCTASGFNIKDTYIHWVRQAPGQGLEWMGEIDPANDNTKYDPKFQGRVTITADTSSNTVYMELSSLRSEDTAVYYCATYYYRYDVGGFDYWGQGTLVTVSS
VL: EILLTQSPGTLSLSPGERATLTCSVSSSISSSNLHWFQQKPGQSPRLWIYGTSNLASGVPDRFSGSGSGTSYTLTISRLEPEDFAVYYCQQWSSYPFTFGQGTKVEIK
notes: as for B1
B18: P13B02-21 (antibody, IgG1, V domains shown)
VH: QVQMKQSGAEVVKPGASVKVSCTASGFNIKDTYIHWVRQAPGQGLEWIGEIDPANDNTKYDPKFQGRVTITADTSSNTVYLQLSSLRSEDTAVYYCATYYYRYDVGGFDYWGQGTLVTVSS
VL: EIVLTQSPGTLSLSPGERATLSCSVSSSISSSNLHWYQQKPGQAPRLLIYGTSNLASGIPDRFSGSGSGTDFTLTISRLEPEDFAVYYCQQWSSYPFTFGQGTKVEIK
notes: as for B1
B19: P13B02-22 (antibody, IgG1, V domains shown)
VH: QVQMKQSGAEVVKPGASVKVSCTASGFNIKDTYIHWVRQAPGQGLEWIGEIDPANDNTKYDPKFQGRVTITADTSSNTVYLQLSSLRSEDTAVYYCATYYYRYDVGGFDYWGQGTLVTVSS
VL: EIVLTQSPGTLSLSPGERATLSCSVSSSISSSNLHWYQQKPGQAPRLLIYGTSNLASGIPDRFSGSGSGTSYTLTISRLEPEDFAVYYCQQWSSYPFTFGQGTKVEIK
notes: as for B1
B20: P13B02-23 (antibody, IgG1, V domains shown)
VH: QVQMKQSGAEVVKPGASVKVSCTASGFNIKDTYIHWVRQAPGQGLEWIGEIDPANDNTKYDPKFQGRVTITADTSSNTVYLQLSSLRSEDTAVYYCATYYYRYDVGGFDYWGQGTLVTVSS
VL: EILLTQSPGTLSLSPGERATLSCSVSSSISSSNLHWFQQKPGQAPRLLIYGTSNLASGIPDRFSGSGSGTSYTLTISRLEPEDFAVYYCQQWSSYPFTFGQGTKVEIK
notes: as for B1

target: T1, recombinant human LAG-3 (human, UniProt P18627 23-450, limits assumed); assay: surface plasmon resonance (data not shown)
T1 sequence (looked up): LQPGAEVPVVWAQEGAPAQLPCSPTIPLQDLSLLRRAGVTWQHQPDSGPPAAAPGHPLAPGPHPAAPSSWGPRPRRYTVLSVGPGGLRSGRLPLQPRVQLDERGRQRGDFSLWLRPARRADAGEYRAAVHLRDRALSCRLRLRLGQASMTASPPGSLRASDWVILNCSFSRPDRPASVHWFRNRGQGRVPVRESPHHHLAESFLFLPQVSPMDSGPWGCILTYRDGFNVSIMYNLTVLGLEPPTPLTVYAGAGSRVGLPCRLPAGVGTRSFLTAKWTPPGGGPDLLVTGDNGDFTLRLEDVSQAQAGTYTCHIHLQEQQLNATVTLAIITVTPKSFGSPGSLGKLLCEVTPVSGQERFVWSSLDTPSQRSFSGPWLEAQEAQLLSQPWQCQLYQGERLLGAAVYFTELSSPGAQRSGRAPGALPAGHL

Binding result, binds:
B1, B2, B3, B4, B5, B6, B7, B8, B9, B10, B11, B12, B13, B14, B15, B16, B17, B18, B19, B20
